Source: patent US11833164B2, “Methods of treating Fabry disease in patients having a mutation in the GLA gene” (Amicus Therapeutics, Inc., priority 2019, dated 2023)
Numbering of substitutions follows the chain as printed. Names may count otherwise.

Experiments:
[1] = system: mutant form of α-Gal A expressed in HEK-293 cells; experiment: HEK assay (GLP HEK / Migalastat Amenability Assay): α-Gal A activity in lysates of transiently transfected HEK-293 cells incubated with or without 10 μM migalastat; type: cell-based, human; conditions: for Absolute increase (% WT) / Relative increase: 10 μM migalastat versus baseline; for Baseline α-Gal A activity (% WT): absence of migalastat; for Baseline α-Gal A activity (% WT) / 10 μM migalastat α-Gal A activity (% WT): percentage of baseline wild-type α-Gal A activity; for Baseline α-Gal A activity (% WT) / Baseline α-Gal A activity / 10 μM migalastat α-Gal A activity / 10 μM migalastat α-Gal A activity (% WT): mean ± SEM; for Baseline α-Gal A activity / 10 μM migalastat α-Gal A activity: lysates of HEK-293 cells transiently transfected with the mutant form; for Baseline α-Gal A activity: incubated 5 days in absence of migalastat; for 10 μM migalastat α-Gal A activity: incubated 5 days with 10 μM migalastat; for 10 μM migalastat α-Gal A activity (% WT): with 10 μM migalastat
Method in brief: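 Activity reported as 4-MU released (nmol/mg/hr), mean±SEM, from lysates of transiently transfected HEK-293 cells expressing mutant α-Gal A, cultured with or without 10 μM migalastat.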

[2] = system: active site of wild-type α-Gal A and specific mutant forms of α-Gal A; conditions: selective and reversible binding; cited from earlier work

Molecule: OC[C@H]1NC[C@H](O)[C@@H](O)[C@H]1O [migalastat, (2R,3S,4R,5S)-2-(hydroxymethyl) piperdine-3,4,5-triol, reference compound]
- in vitro response to incubation with migalastat (amenability criteria) ([1]; novel α-Gal A mutations listed in Table 2, HEK-293 lysates, 10 μM migalastat, 5 days): met amenability criteria
- binding to the active site of α-Gal A [2]: high affinity

B1: S371T (protein)
chain: MQLRNPELHLGCALALRFLALVSWDIPGARALDNGLARTPTMGWLHWERFMCNLDCQEEPDSCISEKLFMEMAELMVSEGWKDAGYEYLCIDDCWMAPQRDSEGRLQADPQRFPHGIRQLANYVHSKGLKLGIYADVGNKTCAGFPGSFGYYDIDAQTFADWGVDLLKFDGCYCDSLENLADGYKHMSLALNRTGRSIVYSCEWPLYMWPFQKPNYTEIRQYCNHWRNFADIDDSWKSIKSILDWTSFNQERIVDVAGPGGWNDPDMLVIGNFGLSWNQQVTQMALWAIMAAPLFMSNDLRHISPQAKALLQDKDVIAINQDPLGKQGYQLRQGDNFEVWERPLSGLAWAVAMINRQEIGGPRSYTIAVATLGKGVACNPACFITQLLPVKRKLGFYEWTSRLRSHINPTGTVLLQLENTMQMSLKDLL
- Absolute increase (% WT) [1]: 26.1 % WT
- Relative increase [1]: 1.3
- Baseline α-Gal A activity (% WT) [1]: 65 ± 3.3 % WT
- Baseline α-Gal A activity [1]: 27962 ± 2785 nmol/mg/h
- 10 μM migalastat α-Gal A activity [1]: 37065 ± 2351 nmol/mg/h
- 10 μM migalastat α-Gal A activity (% WT) ([1]; 5 days): 91.1 ± 5 % WT

B2: G373A (protein)
chain: B1 chain with T371S, G373A
- Absolute increase (% WT) [1]: 12.4 % WT
- Relative increase [1]: 1.3
- Baseline α-Gal A activity (% WT) [1]: 40.8 ± 1.5 % WT
- Baseline α-Gal A activity [1]: 14426 ± 630 nmol/mg/h
- 10 μM migalastat α-Gal A activity [1]: 18622 ± 1289 nmol/mg/h
- 10 μM migalastat α-Gal A activity (% WT) ([1]; 5 days): 53.2 ± 3.7 % WT

B3: G373C (protein)
chain: B1 chain with T371S, G373C
- Absolute increase (% WT) [1]: 8.7 % WT
- Relative increase [1]: 3.2
- Baseline α-Gal A activity (% WT) [1]: 4.3 ± 0.2 % WT
- Baseline α-Gal A activity [1]: 1744 ± 92 nmol/mg/h
- 10 μM migalastat α-Gal A activity [1]: 5543 ± 547 nmol/mg/h
- 10 μM migalastat α-Gal A activity (% WT) ([1]; 5 days): 13 ± 0.9 % WT

B4: K374E (protein)
chain: B1 chain with T371S, K374E
- Absolute increase (% WT) [1]: 14.1 % WT
- Relative increase [1]: 1.3
- Baseline α-Gal A activity (% WT) [1]: 49.9 ± 3.6 % WT
- Baseline α-Gal A activity [1]: 19699 ± 1718 nmol/mg/h
- 10 μM migalastat α-Gal A activity [1]: 24879 ± 2423 nmol/mg/h
- 10 μM migalastat α-Gal A activity (% WT) ([1]; 5 days): 64 ± 5.7 % WT

B5: K374I (protein)
chain: B1 chain with T371S, K374I
- Absolute increase (% WT) [1]: 21.9 % WT
- Relative increase [1]: 2.0
- Baseline α-Gal A activity (% WT) [1]: 22.3 ± 1.3 % WT
- Baseline α-Gal A activity [1]: 8194 ± 506 nmol/mg/h
- 10 μM migalastat α-Gal A activity [1]: 16076 ± 936 nmol/mg/h
- 10 μM migalastat α-Gal A activity (% WT) ([1]; 5 days): 44.2 ± 2.9 % WT

B6: K374R (protein)
chain: B1 chain with T371S, K374R
- Absolute increase (% WT) [1]: 17.9 % WT
- Relative increase [1]: 1.2
- Baseline α-Gal A activity (% WT) [1]: 74.3 ± 4.8 % WT
- Baseline α-Gal A activity [1]: 27984 ± 2321 nmol/mg/h
- 10 μM migalastat α-Gal A activity [1]: 34403 ± 2426 nmol/mg/h
- 10 μM migalastat α-Gal A activity (% WT) ([1]; 5 days): 92.2 ± 4.9 % WT

B7: K374T (protein)
chain: B1 chain with T371S, K374T
- Absolute increase (% WT) [1]: 30.2 % WT
- Relative increase [1]: 1.6
- Baseline α-Gal A activity (% WT) [1]: 46.1 ± 2.8 % WT
- Baseline α-Gal A activity [1]: 16418 ± 1050 nmol/mg/h
- 10 μM migalastat α-Gal A activity [1]: 26614 ± 1659 nmol/mg/h
- 10 μM migalastat α-Gal A activity (% WT) ([1]; 5 days): 76.2 ± 5.7 % WT

B8: G375R (protein)
chain: B1 chain with T371S, G375R
- Absolute increase (% WT) [1]: 18.7 % WT
- Relative increase [1]: 1.4
- Baseline α-Gal A activity (% WT) [1]: 41.7 ± 1.9 % WT
- Baseline α-Gal A activity [1]: 15302 ± 1157 nmol/mg/h
- 10 μM migalastat α-Gal A activity [1]: 22033 ± 1442 nmol/mg/h
- 10 μM migalastat α-Gal A activity (% WT) ([1]; 5 days): 60.4 ± 2.1 % WT

B9: V376E (protein)
chain: B1 chain with T371S, V376E
- Absolute increase (% WT) [1]: 21.9 % WT
- Relative increase [1]: 1.4
- Baseline α-Gal A activity (% WT) [1]: 74 ± 4.6 % WT
- Baseline α-Gal A activity [1]: 22992 ± 924 nmol/mg/h
- 10 μM migalastat α-Gal A activity [1]: 30929 ± 1635 nmol/mg/h
- 10 μM migalastat α-Gal A activity (% WT) ([1]; 5 days): 95.9 ± 3.8 % WT

B10: V376G (protein)
chain: B1 chain with T371S, V376G
- Absolute increase (% WT) [1]: 28.9 % WT
- Relative increase [1]: 1.3
- Baseline α-Gal A activity (% WT) [1]: 93.9 ± 4.6 % WT
- Baseline α-Gal A activity [1]: 33903 ± 2255 nmol/mg/h
- 10 μM migalastat α-Gal A activity [1]: 44774 ± 2982 nmol/mg/h
- 10 μM migalastat α-Gal A activity (% WT) ([1]; 5 days): 122.9 ± 5.6 % WT

B11: V376L (protein)
chain: B1 chain with T371S, V376L
- Absolute increase (% WT) [1]: 19.9 % WT
- Relative increase [1]: 1.3
- Baseline α-Gal A activity (% WT) [1]: 82.4 ± 3.4 % WT
- Baseline α-Gal A activity [1]: 27275 ± 1181 nmol/mg/h
- 10 μM migalastat α-Gal A activity [1]: 34152 ± 1845 nmol/mg/h
- 10 μM migalastat α-Gal A activity (% WT) ([1]; 5 days): 102.3 ± 4.2 % WT

B12: V376M (protein)
chain: B1 chain with T371S, V376M
- Absolute increase (% WT) [1]: 20.1 % WT
- Relative increase [1]: 1.3
- Baseline α-Gal A activity (% WT) [1]: 79.3 ± 2.7 % WT
- Baseline α-Gal A activity [1]: 27547 ± 1431 nmol/mg/h
- 10 μM migalastat α-Gal A activity [1]: 34563 ± 1762 nmol/mg/h
- 10 μM migalastat α-Gal A activity (% WT) ([1]; 5 days): 99.4 ± 3.2 % WT

B13: A377G (protein)
chain: B1 chain with T371S, A377G
- Absolute increase (% WT) [1]: 16.1 % WT
- Relative increase [1]: 1.2
- Baseline α-Gal A activity (% WT) [1]: 71.6 ± 2.5 % WT
- Baseline α-Gal A activity [1]: 26583 ± 1072 nmol/mg/h
- 10 μM migalastat α-Gal A activity [1]: 32517 ± 981 nmol/mg/h
- 10 μM migalastat α-Gal A activity (% WT) ([1]; 5 days): 87.7 ± 2.3 % WT

B14: A377P (protein)
chain: B1 chain with T371S, A377P
- Absolute increase (% WT) [1]: 17.2 % WT
- Relative increase [1]: 1.3
- Baseline α-Gal A activity (% WT) [1]: 59.4 ± 2.6 % WT
- Baseline α-Gal A activity [1]: 21842 ± 930 nmol/mg/h
- 10 μM migalastat α-Gal A activity [1]: 28189 ± 1292 nmol/mg/h
- 10 μM migalastat α-Gal A activity (% WT) ([1]; 5 days): 76.6 ± 3.5 % WT

B15: A377S (protein)
chain: B1 chain with T371S, A377S
- Absolute increase (% WT) [1]: 13.7 % WT
- Relative increase [1]: 1.3
- Baseline α-Gal A activity (% WT) [1]: 48.1 ± 2.3 % WT
- Baseline α-Gal A activity [1]: 17737 ± 860 nmol/mg/h
- 10 μM migalastat α-Gal A activity [1]: 22793 ± 999 nmol/mg/h
- 10 μM migalastat α-Gal A activity (% WT) ([1]; 5 days): 61.8 ± 2.7 % WT
